Molecular target: T1, lexA-bicoid (UniProt P09081 2-160)
T1 construct: also called nonspecific bait; not shown: LexA part of the two-hybrid bait
T1 sequence (looked up): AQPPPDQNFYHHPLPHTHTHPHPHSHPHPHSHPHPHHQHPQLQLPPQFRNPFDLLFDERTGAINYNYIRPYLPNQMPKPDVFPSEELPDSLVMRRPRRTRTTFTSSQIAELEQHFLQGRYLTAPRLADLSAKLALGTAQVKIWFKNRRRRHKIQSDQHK
Assay: yeast two-hybrid (interaction trap), retransformation with control bait
Excerpt: The human minor vault protein p193 amino acid sequence and the nucleotide sequence encoding human minor vault protein p193 were elucidated as follows. First, human vault protein p193 was cloned using an interaction trap, two-hybrid system according to techniques known to those with skill in the art. See, for example, Golemis, et al., *Current Protocols in Mol. Biol.* 20.1.1–20.35 John Willey & Sons, 1997, incorporated by reference in its entirety. In summary, rat major vault protein, GenBank accession number U09870, having the 67 amino acids at the amino-terminal truncated was used as bait against a HeLa acid fusion cDNA library obtained from Roger Brent, Boston, Mass., USA to search for proteins that interacted with rat major vault protein. The interacting proteins were identified by their ability to give rise to blue colonies on media containing galactose and X-gal, a color indicator substrate. The specificity of the interaction between the identified proteins and the rat major vault protein was verified by retransformation of the identified proteins with specific, rat major vault protein and nonspecific (lexA-bicoid) bait cDNAs. This technique identified the cDNA encoding the 193 kDa minor vault protein, SEQ ID NO: 1, by its interaction with the rat major vault protein.

B1: human minor vault protein p193 (other)
chain: VCTQHWQDAVPWTELLSLQTEDGFWKLTPELGLILNLNTNGLHSFLKQKGIQSLGVKGRECLLDLIATMLVLQFIRTRLEKEGIVFKSLMKMDDPSISRNIPWAFEAIKQASEWVRRTEGQYPSICPRLELGNDWDSATKQLLGLQPISTVSPLHRVLHYSQG
notes: In the two-hybrid screen, p193 was a clone from a HeLa acid fusion cDNA library; In the western blots, immunofluorescence and immunoprecipitation, the form of p193 is not described; also called 193 kDa minor vault protein; human vault protein p193
binding result: no binding

From patent US6555347 (University of California, dated 2003)
